In patent publication CN111171150A (BEIJING ZHIREN MEIBO BIOTECHNOLOGY CO LTD, dated 2020):

Key:
hTSLP1-m-His [1] = biological target: T1, hTSLP1-m-His (human (homo sapiens), UniProt Q969D9 29-159); test: SPR (Biacore X100) as in Example 3.1, antibody captured, hTSLP as analyte
T1 construct: Long version of the human TSLP extracellular region, furin site deleted, His tag at the C-terminus, made in HEK293; also called hTSLP-m-his; not shown: C-terminal His tag

hTSLP1-m-His [2] = biological target: T1, hTSLP1-m-His; test: SPR (Biacore X100), antibody captured by anti-human IgG (Fc) on CM5, hTSLP1-m-his as analyte, 25 C, 1:1 fit
mfTSLP = biological target: T2, mfTSLP (cynomolgus monkey (Macaca fascicularis)); test: SPR (Biacore X100) as in Example 3.1, antibody captured, mfTSLP as analyte
T2 construct: also called 猴TSLP; 食蟹猴TSLP
T2 chain: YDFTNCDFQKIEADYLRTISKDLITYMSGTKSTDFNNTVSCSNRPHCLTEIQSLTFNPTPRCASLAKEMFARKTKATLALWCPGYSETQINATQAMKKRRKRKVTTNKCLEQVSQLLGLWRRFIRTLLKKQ

hTSLP1-m-mFc = biological target: T3, hTSLP1-m-mFc (human (homo sapiens)); mouse (mus …, limits assumed); test: ELISA on coated hTSLP1-m-mFc (1 μg/mL), HRP anti-human IgG
T3 construct: also called 人TSLP
T3 chain: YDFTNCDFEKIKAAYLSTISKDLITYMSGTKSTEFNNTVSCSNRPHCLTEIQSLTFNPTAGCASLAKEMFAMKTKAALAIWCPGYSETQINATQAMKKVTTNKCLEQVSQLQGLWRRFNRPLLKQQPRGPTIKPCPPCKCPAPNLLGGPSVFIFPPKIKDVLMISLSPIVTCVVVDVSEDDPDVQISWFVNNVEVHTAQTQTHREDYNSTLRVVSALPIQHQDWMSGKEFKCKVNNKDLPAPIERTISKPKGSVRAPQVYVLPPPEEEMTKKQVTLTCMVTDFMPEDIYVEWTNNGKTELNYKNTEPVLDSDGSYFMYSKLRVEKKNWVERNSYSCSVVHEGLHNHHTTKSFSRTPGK

mfTSLP1-m-mFc = biological target: T4, mfTSLP1-m-mFc (cynomolgus monkey (Macaca …)); test: ELISA on coated mfTSLP1-m-mFc (1 μg/mL), HRP anti-human IgG
T4 construct: also called 食蟹猴TSLP
T4 chain: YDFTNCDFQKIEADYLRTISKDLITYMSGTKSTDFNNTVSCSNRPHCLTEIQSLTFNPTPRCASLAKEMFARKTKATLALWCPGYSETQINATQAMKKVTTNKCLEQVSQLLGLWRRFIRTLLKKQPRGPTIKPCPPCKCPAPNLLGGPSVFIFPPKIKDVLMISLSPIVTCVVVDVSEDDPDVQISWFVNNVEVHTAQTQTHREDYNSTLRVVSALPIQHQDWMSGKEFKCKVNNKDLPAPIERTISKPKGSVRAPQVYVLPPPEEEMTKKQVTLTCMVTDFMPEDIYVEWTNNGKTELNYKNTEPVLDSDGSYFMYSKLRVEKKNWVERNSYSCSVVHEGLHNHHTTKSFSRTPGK

mTSLP-mFc = biological target: T5, mTSLP-mFc (mouse (mus musculus)); test: ELISA on coated mTSLP-mFc (1 μg/mL), HRP anti-human IgG
T5 construct: also called 小鼠TSLP
T5 chain: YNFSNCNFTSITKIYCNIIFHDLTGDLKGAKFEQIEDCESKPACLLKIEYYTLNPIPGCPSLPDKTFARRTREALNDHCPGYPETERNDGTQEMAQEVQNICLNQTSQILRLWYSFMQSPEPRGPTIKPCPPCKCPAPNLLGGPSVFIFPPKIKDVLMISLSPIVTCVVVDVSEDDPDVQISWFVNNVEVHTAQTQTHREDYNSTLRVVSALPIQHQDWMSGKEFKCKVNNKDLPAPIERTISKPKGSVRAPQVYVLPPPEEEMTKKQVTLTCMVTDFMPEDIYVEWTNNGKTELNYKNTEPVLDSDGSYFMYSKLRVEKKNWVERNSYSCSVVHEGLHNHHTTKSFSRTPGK

hTSLP1-m-His [3] = biological target: T1, hTSLP1-m-His; test: competition ELISA on coated hTSLP1-m-his; competitor Tezepelumab-mIgG2a; HRP anti-human IgG

B1: S2B1-IgG4 (antibody, V domains shown)
VH: EVKLQQSGAELVRPGSSVKISCKASGYAFSNYWMNWVKQRPGQGLEWIGQIFPGDGDTDYNGKFKGKATLTADKSSSTAYMQLSSLTSEDSAVYFCARAGYYRGYYAMDYWGQGTSVTVSA
VL: EIVLTQSPALMAASPGEKVTITCSVSSSISSSNLHWYQQKSETSPKPWIYGTSNLASGVPVRFSGSGSGTSYSLTISSMEAEDAATYYCQQWSSYPLTFGAGTKLEIK
Kd (hTSLP1-m-His [1]): 0.012 nM | Kd (hTSLP1-m-His [2]): 0.0092 nM

B2: Tezepelumab (antibody, V domains shown)
VH: QMQLVESGGGVVQPGRSLRLSCAASGFTFRTYGMHWVRQAPGKGLEWVAVIWYDGSNKHYADSVKGRFTITRDNSKNTLNLQMNSLRAEDTAVYYCARAPQWELVHEAFDIWGQGTMVTVSS
VL: SYVLTQPPSVSVAPGQTARITCGGNNLGSKSVHWYQQKPGQAPVLVVYDDSDRPSWIPERFSGSNSGNTATLTISRGEAGDEADYYCQVWDSSSDHVVFGGGTKLTVL
notes: also called AMG 157; MEDI9929
Kd (mfTSLP): 0.00816 nM

B3: H1A10+L3E8-M1 (antibody, human IgG4, V domains shown)
VH: QVQLVQSGAEVKKPGASVKVSCKASGYAFSNYWMNWVRQAPGQGLEWMGQIFPGDSDTDYDQKFQGRVTMTRDTSTSTVYMELSSLRSEDTAVYYCARAGYYRGYYAMDYWGQGTTVTVSS
VL: EIVMTQSPATLSVSPGERATLSCSVSSSISSSNLHWYQQKPGQAPRPWIYGTSNLASGIPARFSGSGSGTEFTLTISSLQSEDFAVYYCQQWSSYPLTFGQGTKLEIK
notes: also called L3E8人源化突变体; 人源化抗TSLP单克隆抗体
binding result (hTSLP1-m-mFc): binds | Kd (mfTSLP): 2.66 nM | binding result (mfTSLP1-m-mFc): binds | binding result (mTSLP-mFc): no binding

B4: H1A10+L3E8-M1-IgG1m3 (antibody, V domains shown)
VH: QVQLVQSGAEVKKPGASVKVSCKASGYAFSNYWMNWVRQAPGQGLEWMGQIFPGDSDTDYDQKFQGRVTMTRDTSTSTVYMELSSLRSEDTAVYYCARAGYYRGYYAMDYWGQGTTVTVSS
VL: EIVMTQSPATLSVSPGERATLSCSVSSSISSSNLHWYQQKPGQAPRPWIYGTSNLASGIPARFSGSGSGTEFTLTISSLQSEDFAVYYCQQWSSYPLTFGQGTKLEIK
notes: IgG1m3 version; also called L3E8人源化突变体(IgG1m3版本)
binding result (hTSLP1-m-His [3]): binds

B5: H1A10+L3E8-M3-IgG1m3 (antibody, V domains shown)
VH: QVQLVQSGAEVKKPGASVKVSCKASGYAFSNYWMNWVRQAPGQGLEWMGQIFPGDSDTDYDQKFQGRVTMTRDTSTSTVYMELSSLRSEDTAVYYCARAGYYRGYYAMDYWGQGTTVTVSS
VL: EIVMTQSPATLSVSPGERATITCSVSSSISSSNLHWYQQKPGQAPRPWIYGTSNLASGIPARFSGSGSGTEFTLTISSLQSEDFAVYYCQQWSSYPLTFGQGTKLEIK
notes: as for B4
binding result (hTSLP1-m-His [3]): binds

B6: H1A10+L3E8 (antibody, V domains shown)
VH: QVQLVQSGAEVKKPGASVKVSCKASGYAFSNYWMNWVRQAPGQGLEWMGQIFPGDSDTDYDQKFQGRVTMTRDTSTSTVYMELSSLRSEDTAVYYCARAGYYRGYYAMDYWGQGTTVTVSS
VL: EIVMTQSPATLSVSPGERATITCSVSSSISSSNLHWYQQKPGQAPKPWIYGTSNLASGIPARFSGSGSGTEFSLTISSVEAEDAAVYYCQQWSSYPLTFGQGTKLEIK
binding result (hTSLP1-m-mFc): binds | binding result (mfTSLP1-m-mFc): binds | binding result (mTSLP-mFc): no binding

B7: H1A10+L3E8-M2 (antibody, IgG4, V domains shown)
VH: QVQLVQSGAEVKKPGASVKVSCKASGYAFSNYWMNWVRQAPGQGLEWMGQIFPGDSDTDYDQKFQGRVTMTRDTSTSTVYMELSSLRSEDTAVYYCARAGYYRGYYAMDYWGQGTTVTVSS
VL: EIVMTQSPATLSVSPGERATLSCSVSSSISSSNLHWYQQKPGQAPKPWIYGTSNLASGIPARFSGSGSGTEFTLTISSLQSEDFAVYYCQQWSSYPLTFGQGTKLEIK
notes: also called L3E8人源化突变体
binding result (hTSLP1-m-mFc): binds | Kd (mfTSLP): 2.59 nM | binding result (mfTSLP1-m-mFc): binds | binding result (mTSLP-mFc): no binding

B8: H1A10+L3E8-M3 (antibody, IgG4, V domains shown)
VH: QVQLVQSGAEVKKPGASVKVSCKASGYAFSNYWMNWVRQAPGQGLEWMGQIFPGDSDTDYDQKFQGRVTMTRDTSTSTVYMELSSLRSEDTAVYYCARAGYYRGYYAMDYWGQGTTVTVSS
VL: EIVMTQSPATLSVSPGERATITCSVSSSISSSNLHWYQQKPGQAPRPWIYGTSNLASGIPARFSGSGSGTEFTLTISSLQSEDFAVYYCQQWSSYPLTFGQGTKLEIK
notes: also called L3E8人源化突变体
binding result (hTSLP1-m-mFc): binds | Kd (mfTSLP): 2.37 nM | binding result (mfTSLP1-m-mFc): binds | binding result (mTSLP-mFc): no binding

B9: H1A10+L3E8-M4 (antibody, IgG4, V domains shown)
VH: QVQLVQSGAEVKKPGASVKVSCKASGYAFSNYWMNWVRQAPGQGLEWMGQIFPGDSDTDYDQKFQGRVTMTRDTSTSTVYMELSSLRSEDTAVYYCARAGYYRGYYAMDYWGQGTTVTVSS
VL: EIVMTQSPATLSVSPGERATLSCSVSSSISSSNLHWYQQKPGQAPRPWIYGTSNLASGIPARFSGSGSGTEFTLTISSMEAEDFAVYYCQQWSSYPLTFGQGTKLEIK
notes: also called L3E8人源化突变体
binding result (hTSLP1-m-mFc): binds | Kd (mfTSLP): 2.63 nM | binding result (mfTSLP1-m-mFc): binds | binding result (mTSLP-mFc): no binding

B10: H1A10+L3E8-M2-IgG1m3 (antibody, V domains shown)
VH: QVQLVQSGAEVKKPGASVKVSCKASGYAFSNYWMNWVRQAPGQGLEWMGQIFPGDSDTDYDQKFQGRVTMTRDTSTSTVYMELSSLRSEDTAVYYCARAGYYRGYYAMDYWGQGTTVTVSS
VL: EIVMTQSPATLSVSPGERATLSCSVSSSISSSNLHWYQQKPGQAPKPWIYGTSNLASGIPARFSGSGSGTEFTLTISSLQSEDFAVYYCQQWSSYPLTFGQGTKLEIK
notes: as for B4
binding result (hTSLP1-m-His [3]): binds

B11: H1A10+L3E8-M4-IgG1m3 (antibody, V domains shown)
VH: QVQLVQSGAEVKKPGASVKVSCKASGYAFSNYWMNWVRQAPGQGLEWMGQIFPGDSDTDYDQKFQGRVTMTRDTSTSTVYMELSSLRSEDTAVYYCARAGYYRGYYAMDYWGQGTTVTVSS
VL: EIVMTQSPATLSVSPGERATLSCSVSSSISSSNLHWYQQKPGQAPRPWIYGTSNLASGIPARFSGSGSGTEFTLTISSMEAEDFAVYYCQQWSSYPLTFGQGTKLEIK
notes: as for B4
binding result (hTSLP1-m-His [3]): binds
